The term IC50 denotes the concentration that gives 50% inhibition.

In this experiment the target is ACE2 on Vero E6 cells (monkey (endogenous in Vero E6)). Put plainly: flow cytometry on cells. (In general: A flow cytometer gives signals particle by particle.)

functional peptide KYPAY (K5) came in with an IC50 of 6.7 µM.
